Residue numbers refer to the chain shown, from its start.
Key:
[1] = test system: RAJI cells; test: Jurkat NFAT-GFP assay, coculture with RAJI cells; assay type: cell-based, human
Experimental: (B) Induction of NFAT promoter driven GFP expression. The control vector- and SIR-expressing Jurkat-NFAT-GFP cocultured for 4-24 hours with the target antigen-expressing cell line (described above) and their ability to bind to the target antigen is assayed by measuring induction of GFP expression using Flow Cytometry. Cellular supernatant is collected and assayed for the induction of cytokines (e.g., IL2).
Jurkat NFAT-GFP Assay For Synthetic Immune Receptors. The Jurkat-NFAT-GFP cells are engineered in such a way that the IL-2 promoter, which carries NFAT binding sites, is cloned upstream of the GFP gene. These cells have been used to study signaling via TCR and CAR. The different SIRs were stably expressed in Jurkat NFAT-GFP cells by lentiviral mediated gene transfer, followed by selection with puromycin. The SIR-expressing Jurkat-NFAT-GFP cells were cocultured with the target cells at E:T ratio of approximately 1:2 for approximately 4 hours to 18 hours. When the interaction between SIRs and their target antigen results in activation of the NFAT pathway, GFP expression is induced.
Induction of GFP expression by coculturing of Jurkat-NFAT-GFP cells expressing different SIR constructs and the different target cells was studied essentially as described previously (Wu, Roybal, Puchner, Onuffer, & Lim, 2015). GFP expression was monitored by FACS analysis. […] In panel B, Jurkat cells expressing SIR targeting CDH6 (Clone ID: 051716-J05), CD276 (Clone ID: 050516-Q06) and Her2/neu (Clone ID: 050516-I03) were incubated with SKOV3 (top) and […] (middle and bottom) cells, respectively. […] The Jurkat-NFAT-GFP cells were engineered to express different SIRs targeting other antigens and the experiment repeated upon coculture with the target cells expressing their respective target antigen. The Jurkat-NFAT-GFP (parental) cells were used as control. […] The names of different SIRs, their SEQ ID NOs, component antigen binding domains and TCR chains can be determined by reference to Tables 7A-7H. A SIR is considered positive in the assay in case the SIR expressing Jurkat-NFAT-GFP cells show greater % GFP positive cells when cultured with the target cell line as compared to parental Jurkat-NFAT-GFP cells. […] The signs +/−, +, 2+ etc. after the name of the cell lines indicate the relative degree of positivity on the Jurkat-NFAT-GFP assay as measured by the % GFP positive cells after culture of the SIR expressing Jurkat-NFAT-GFP cells with that cell line.

[2] = FACS detection of CARs and SIRs by Myc and Protein L staining (cell surface expression); assay type: cell-based, human; settings: staining with APC-conjugated Protein-L, Jurkat-NFAT-GFP cells
Experimental: FACS analysis. Mouse Anti-Human c-Myc APC-conjugated Monoclonal Antibody (Catalog #IC3696A) was from R&D Systems (Minneapolis, MN). Biotinylated protein L was purchased from GeneScript (Piscataway, NJ), reconstituted in phosphate buffered saline (PBS) at 1 mg/ml and stored at 4° C. Streptavidin-APC (SA1005) was purchased from ThermoFisher Scientific.
For detection of CARs and SIRs using Myc staining, 1×10^6 cells were harvested and washed three times with 3 ml of ice-cold 1×PBS containing 4% bovine serum albumin (BSA) wash buffer. After wash, cells were resuspended in 0.1 ml of the ice-cold wash buffer containing 10 μl of APC-conjugated Myc antibody and incubated in dark for 1 hour followed by two washings with ice cold wash buffer.
For detection of CARs and SIRs using Protein L staining, 1×10^6 cells were harvested and washed three times with 3 ml of ice-cold 1×PBS containing 4% bovine serum albumin (BSA) wash buffer. After wash, cells were resuspended in 0.1 ml of the ice-cold wash buffer containing 1 μg of protein L at 4° C. for 1 hour. Cells were washed three times with ice-cold wash buffer, and then incubated (in the dark) with 10 μl of APC-conjugated streptavidin in 0.1 ml of the wash buffer for 30 minutes followed by two washings with ice cold wash buffer. FACS was done using FACSVerse analyzer from BD Biosciences.

[3] = GFP expression upon 18 hour co-culture with RAJI cells, Table 10B
[4] = overnight co-culture with RAJI cells, Table 10C

B1: 10492 (protein)
chain: MALPVTALLLPLALLLHAARPDVVMTQSPSSLSASVGDRVTITCRASQDISKYLNWYQQKPGKAPKLLIYHTSRLHSGVPSRFSGSGSGTDFTLTISSLQPEDFATYYCQQGNTLPYTFGGGTKVEIKLEDLKNVFPPEVAVFCPSEAEISHTQKATLVCLATGFYPDHVELSWWVNGKEVHSGVSTDPQPLKEQPALNDSRYCLSSRLRVSATFWQNPRNHFRCQVQFYGLSENDEWTQDRAKPVTQIVSAEAWGRADCGFTSESYQQGVLSATILYEILLGKATLYAVLVSALVLMAMVKRKDSRGRAKRSGSGATNFSLLKQAGDVEENPGPTSMDWIWRILFLVGAATGAHSFEQVQLQESGPGLVKPSQTLSLTCTVSGVSLPDYGVSWIRQPPGKGLEWIGVIWGSETTYYNSALKSRVLISVDTSKNQVSLKLSSVTAADTAVYYCARHYYYGGSYAMDYWGQGTTVTVSSTRIQNPDPAVYQLRDCKSSDKSVCLFTDFDSQTNVSQSKDSDVYITDKTVLDMRSMDFKSNSAVAWSNKSDFACANAFNNSIIPEDTFFPSPESSCDVKLVEKSFETDTNLNFQNLSVIGFRILLLKVAGFNLLMTLRLWSS
Q: For B1, which “NFAT-GFP (%)” value [1, 3] is on record?
A: The value was 2.48%.

Q: And the “Prt-L-APC (%)” value [2]?
A: Its value is 8%.

B2: 10494 (protein)
chain: B1 chain with C144E, S206C, C494S, T524C
Q: What does the source list for B2?
A: NFAT-GFP (%) [1, 3]: 0.9%; Prt-L-APC (%) [2]: 7%

B3: 10493 (protein)
chain: B1 chain with C144E, D188C, C494S, T524C
Q: Which “NFAT-GFP (%)” value [1, 3] does the source give for B3 here?
A: The value was 1.35%.

Q: What about the “Prt-L-APC (%)” value [2] of the same molecule?
A: The value was 9%.

B4: 11240 (protein)
chain: MALPVTALLLPLALLLHAARPDIVMTQSPATLSLSPGERATLSCRSSKSLQNVNGNTYLYWFQQKPGQSPQLLIYRMSNLNSGVPDRFSGSGSGTEFTLTISSLEPEDFAVYYCMQHLEYPITFGAGTKLEIKLEEQKLISEEDLGSGEDLKNVFPPEVAVFEPSKAEIAHTQKATLVCLATGFYPDHVELSWWVNGKEVHSGVCTDPQPLKEQPALNDSRYCLSSRLRVSATFWQNPRNHFRCQVQFYGLSENDEWTQDRAKPVTQIVSAEAWGRADCGITSASYHQGVLSATILYEILLGKATLYAVLVSALVLMAMVKRKDSRGRAKRSGSGATNFSLLKQAGDVEENPGPTSMDWIWRILFLVGAATGAHSFEEVQLVESGGGLVKPGGSLKLSCAASGYTFTSYVMHWVRQAPGKGLEWIGYINPYNDGTKYNEKFQGRVTISSDKSISTAYMELSSLRSEDTAMYYCARGTYYYGTRVFDYWGQGTLVTVSSTREQKLISEEDLGSGIQNPDPAVYQLRDSKSSDKSVCLFTDFDSQTNVSQSKDSDVYITDKCVLDMRSMDFKSNSAVAWSNKSDFACANAFNNSIIPEDTFFPSSDVPCDVKLVEKSFETDTNLNFQNLSVIGFRILLLKVAGFNLLMTLRLWSSRAKRSGSGVKQTLNFDLLKLAGDVESNPGPSRGHMTEYKPTVRLATRDDVPRAVRTLAAAFADYPATRHTVDPDRHIERVTELQELFLTRVGLDIGKVWVADDGAAVAVWTTPESVEAGAVFAEIGPRMAELSGSRLAAQQQMEGLLAPHRPKEPAWFLATVGVSPDHQGKGLGSAVVLPGVEAAERAGVPAFLETSAPRNLPFYERLGFTVTADVEVPEGPRTWCMTRKPGA
Q: For B4, which “NFAT-GFP (%)” value [1, 4] is on record?
A: Its value is 31.59%.

B5: 11245 (protein)
chain: MALPVTALLLPLALLLHAARPDIQMTQSPSSLSASVGDRVTITCKASDHINNWLAWYQQKPGQAPKLLIYGATTLETGVPSRFSGSGSGTDYTLTISSLQPEDFATYYCQQSWNTPWTFGQGTKLEIKRLEDLKNVFPPEVAVFEPSKAEIAHTQKATLVCLATGFYPDHVELSWWVNGKEVHSGVCTDPQPLKEQPALNDSRYCLSSRLRVSATFWQNPRNHFRCQVQFYGLSENDEWTQDRAKPVTQIVSAEAWGRADCGITSASYHQGVLSATILYEILLGKATLYAVLVSALVLMAMVKRKDSRGRAKRSGSGATNFSLLKQAGDVEENPGPTSMDWIWRILFLVGAATGAHSFEQVQLQQPGAELVKPGASVKMSCKASGYAFSSYWINWMKQKPGQGLEWIGQIYPGDGDTNYNGKFKGRATLTADTSSSTAYMQLSSLTSEDSAVYFCARSITTVVGCAMDYWGQGTSVTVSSTRIQNPDPAVYQLRDSKSSDKSVCLFTDFDSQTNVSQSKDSDVYITDKCVLDMRSMDFKSNSAVAWSNKSDFACANAFNNSIIPEDTFFPSSDVPCDVKLVEKSFETDTNLNFQNLSVIGFRILLLKVAGFNLLMTLRLWSSRAKRSGSGVKQTLNFDLLKLAGDVESNPGPSRGHMTEYKPTVRLATRDDVPRAVRTLAAAFADYPATRHTVDPDRHIERVTELQELFLTRVGLDIGKVWVADDGAAVAVWTTPESVEAGAVFAEIGPRMAELSGSRLAAQQQMEGLLAPHRPKEPAWFLATVGVSPDHQGKGLGSAVVLPGVEAAERAGVPAFLETSAPRNLPFYERLGFTVTADVEVPEGPRTWCMTRKPGA
Q: With B5 as the molecule, how does the “NFAT-GFP (%)” value [1, 4] read?
A: The value was 71.81%.

B6: 1038 (protein)
chain: MALPVTALLLPLALLLHAARPEIVLTQSPATLSLSPGERATLSCSASSSVSYMHWYQQKPGQAPRLLIYDTSKLASGIPARFSGSGSGTDFTLTISSLEPEDVAVYYCFQGSVYPFTFGQGTKLEIKRLEGKPIPNPLLGLDSTGSGEDLKNVFPPEVAVFEPSEAEISHTQKATLVCLATGFYPDHVELSWWVNGKEVHSGVSTDPQPLKEQPALNDSRYCLSSRLRVSATFWQNPRNHFRCQVQFYGLSENDEWTQDRAKPVTQIVSAEAWGRADCGFTSESYQQGVLSATILYEILLGKATLYAVLVSALVLMAMVKRKDSRGRAKRSGSGATNFSLLKQAGDVEENPGPTSMDWIWRILFLVGAATGAHSFEQVQLQESGPGLVKPSQTLSLTCTVSGGSISTSGMGVGWIRQHPGKGLEWIGHIWWDDDKRYNPALKSRVTISVDTSKNQFSLKLSSVTAADTAVYYCARMELWSYYFDYWGQGTLVTVSSTREQKLISEEDGSGIQNPDPAVYQLRDSKSSDKSVCLFTDFDSQTNVSQSKDSDVYITDKTVLDMRSMDFKSNSAVAWSNKSDFACANAFNNSIIPEDTFFPSPESSCDVKLVEKSFETDTNLNFQNLSVIGFRILLLKVAGFNLLMTLRLWSSRAKRSGSGVKQTLNFDLLKLAGDVESNPGPSRGHMTEYKPTVRLATRDDVPRAVRTLAAAFADYPATRHTVDPDRHIERVTELQELFLTRVGLDIGKVWVADDGAAVAVWTTPESVEAGAVFAEIGPRMAELSGSRLAAQQQMEGLLAPHRPKEPAWFLATVGVSPDHQGKGLGSAVVLPGVEAAERAGVPAFLETSAPRNLPFYERLGFTVTADVEVPEGPRTWCMTRKPGA
modifications: Synthetic polynucleotide encoding a SIR
Q: For B6, which “NFAT-GFP (%)” value [1, 4] is on record?
A: Its value is 4.49%.

B7: 10815 (protein)
chain: MALPVTALLLPLALLLHAARPDIQMTQSPSSLSASVGDRVTITCKASDHINNWLAWYQQKPGQAPKLLIYGATTLETGVPSRFSGSGSGTDYTLTISSLQPEDFATYYCQQSWNTPWTFGQGTKLEIKRLEIQNPDPAVYQLRDSKSSDKSVCLFTDFDSQTNVSQSKDSDVYITDKCVLDMRSMDFKSNSAVAWSNKSDFACANAFNNSIIPEDTFFPSSDVPCDVKLVEKSFETDTNLNFQNLSVIGFRILLLKVAGFNLLMTLRLWSSRAKRSGSGVKQTLNFDLLKLAGDVESNPGPTSMDWIWRILFLVGAATGAHSFEQVQLQQPGAELVKPGASVKMSCKASGYAFSSYWINWMKQKPGQGLEWIGQIYPGDGDTNYNGKFKGRATLTADTSSSTAYMQLSSLTSEDSAVYFCARSITTVVGCAMDYWGQGTSVTVSSTREDLKNVFPPEVAVFEPSKAEIAHTQKATLVCLATGFYPDHVELSWWVNGKEVHSGVCTDPQPLKEQPALNDSRYCLSSRLRVSATFWQNPRNHFRCQVQFYGLSENDEWTQDRAKPVTQIVSAEAWGRADCGITSASYHQGVLSATILYEILLGKATLYAVLVSALVLMAMVKRKDSRGRAKRSGSGATNFSLLKQAGDVEENPGPSRGHMTEYKPTVRLATRDDVPRAVRTLAAAFADYPATRHTVDPDRHIERVTELQELFLTRVGLDIGKVWVADDGAAVAVWTTPESVEAGAVFAEIGPRMAELSGSRLAAQQQMEGLLAPHRPKEPAWFLATVGVSPDHQGKGLGSAVVLPGVEAAERAGVPAFLETSAPRNLPFYERLGFTVTADVEVPEGPRTWCMTRKPGA
Q: With B7 as the molecule, how does the “NFAT-GFP (%)” value [1, 4] read?
A: The value was 52.36%.

— patent publication US12269859B2, “Synthetic immune receptors and methods of use thereof” (Angeles Therapeutics, Inc., priority 2016, dated 2025)
